Entries after “also recorded” stand apart in the source; their conditions may differ. Values belong to the substance of their own block, whether it stands above or below them. No end group written: not given here.
Assays:
[1] = molecular target: T1, EpCAM (Homo sapiens, UniProt P16422); test: Co-localization of multimer and anti-EpCAM-AF594 on human liver tissue microarray; assay type: binding
T1 construct: from tissue; host or cells: human HCC patient-derived xenograft tumor grown orthotopically in NSG mouse liver
T1 sequence (P16422 24-314): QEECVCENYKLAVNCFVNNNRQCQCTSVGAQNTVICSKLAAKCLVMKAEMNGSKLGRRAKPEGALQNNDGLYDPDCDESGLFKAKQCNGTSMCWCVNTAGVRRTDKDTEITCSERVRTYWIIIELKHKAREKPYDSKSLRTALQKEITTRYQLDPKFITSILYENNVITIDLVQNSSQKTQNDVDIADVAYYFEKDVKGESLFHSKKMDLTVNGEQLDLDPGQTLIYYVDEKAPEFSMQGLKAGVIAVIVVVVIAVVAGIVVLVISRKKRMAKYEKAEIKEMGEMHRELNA
Protocol: (§1) Binding of Cy5.5-labeled peptide multimer was evaluated using human HCC specimens ex vivo. All experiments using human tissues were approved by the Michigan Medicine IRB (HUM00122873). A tissue microarray (TMA) was generated from n=120 liver specimens provided by the archived tissue bank in the Department of Pathology. Paraffin-embedded (FFPE) section slide was deparaffinized and conducted through antigen retrieval. Blocking procedure was performed with 5% goat serum for 1 hour at room temperature. The slide was first stained with the Cy5.5 labeled peptide multimer at 5 μM for 5 min at room temperature. The section was then incubated with primary antibodies using 1:200 dilution of primary recombinant rabbit anti-GPC3 antibody (#ab95363, Abcam), 1:500 dilution of primary recombinant mouse anti-CD44 antibody (#3570, Cell Signaling Technology), and AF594-labeled primary anti-EpCAM (#7319, Cell Signaling Technology) overnight at 4° C. After washing with 2% BSA in PBST, section was incubated with 1:500 dilution of AF488-labeled secondary goat anti-mouse IgG antibody (#ab150113, Abcam) and 1:500 dilution of AF532-labeled secondary goat anti-rabbit IgG antibody (#A-11029, Life Technologies) for 1 hour at room temperature, and mounted with Prolong Gold reagent containing DAPI at last (Invitrogen). The fluorescence images were collected using Leica Stellaris 5 (inverted), excitation at Aex=670 nm for the peptide multimer, and λex=488, 532, 594 nm for CD44, GPC3 and EpCAM antibody, respectively. Fluorescence intensities were quantified using Leica LAS AF Lite software. All slides were evaluated by an expert liver pathologist.

[2] = molecular target: T2, GPC3 (Homo sapiens, UniProt P51654); test: Co-localization of multimer and anti-GPC3-AF532 on human liver tissue microarray; assay type: binding
T2 construct: from tissue; host or cells: human HCC patient-derived xenograft tumor grown orthotopically in NSG mouse liver
T2 sequence (P51654 25-554): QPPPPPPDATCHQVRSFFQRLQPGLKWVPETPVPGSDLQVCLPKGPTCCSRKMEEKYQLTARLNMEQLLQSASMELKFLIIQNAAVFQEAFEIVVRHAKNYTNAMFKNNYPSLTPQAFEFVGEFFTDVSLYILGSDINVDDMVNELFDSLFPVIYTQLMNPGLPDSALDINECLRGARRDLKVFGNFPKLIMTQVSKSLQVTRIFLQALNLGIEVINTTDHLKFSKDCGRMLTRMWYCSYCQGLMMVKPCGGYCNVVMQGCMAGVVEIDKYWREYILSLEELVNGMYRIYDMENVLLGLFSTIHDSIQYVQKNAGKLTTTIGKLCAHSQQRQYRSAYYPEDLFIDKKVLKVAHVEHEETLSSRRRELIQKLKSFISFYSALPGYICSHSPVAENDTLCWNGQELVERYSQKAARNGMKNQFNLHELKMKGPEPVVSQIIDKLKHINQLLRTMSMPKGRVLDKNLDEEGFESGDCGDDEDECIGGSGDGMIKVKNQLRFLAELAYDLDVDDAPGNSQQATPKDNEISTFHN
Protocol: as §1

[3] = tested on: human CCA-156 HCC cells; test: Binding of Cy5.5-labeled peptides to CCA-156 HCC cells, confocal fluorescence; assay type: cell-based; conditions: 5 μM, 5 min on ice
Protocol: HCC patient-derived cells (CCA-156) were generated from fresh, de novo tumor specimens obtained from patients undergoing liver transplant.
Fresh tissue was cut into ~1 mm^2 pieces in ice-cold DPBS. and 3-4 pieces were placed in one well of a 12-well plate. Minced tissue was cultured using Matrigel with growth media containing 10 μM ROCK inhibitor Y27632 (ATCC) and 5 μM TGF-β inhibitor (A83-01, Sigma-Aldrich) diluted to 8 mg/mL. An HCC cell line and a corresponding organoid were successfully generated. The cell line was denoted CCA-156 to reflect the specimen ID.
Approximately 10^3 CCA-156 cells were grown on the cover glass in a 24-well plate to ~90% confluence. The cells were washed with PBS twice and incubated with 5 μM of either Cy5.5-labeled peptide multimer or peptide monomer for 5 min on ice. The cells were then washed with PBS for 3X, fixed with 4% paraformaldehyde (PFA) in PBS for 15 min, washed with PBS for twice, then mounted on glass slides with ProLong Gold reagent containing DAPI (Invitrogen).

[4] = molecular target: T1, EpCAM; test: Co-localization of labeled multimer and anti-EpCAM antibody binding to HCC patient-derived organoids (PDOs); conditions: merged images
Protocol: (§2) PDOs were established from human HCC specimens. These immortalized human tissues provided clinically relevant target expression levels and genetic heterogeneity seen in the HCC patient population. Short tandem repeat analysis was performed to authenticate human genomic expression and characterize genetic variations. Images collected using the candidate IRDye800-labeled multimer, AF488-labeled monoclonal antibodies specific for GPC3, CD44, and EpCAM, and merged are shown, FIG. 2A-C. Strong fluorescence intensity can be seen at the cell surface (arrows). Multimer and antibody co-localization was measured using correlation analysis.
(§3) For a co-localization assay, patient-derived organoids were recovered from Matrigel and fixed by 4% PFA for 30 min. Permeabilization and blocking were performed using 5% serum (v/v) and 1% Triton X-100 (v/v) in PBS for 3 hours at room temperature. Organoids were then incubated with 1:200 dilution of primary recombinant rabbit anti-GPC3 antibody (#ab95363, Abcam), 1:500 dilution of primary recombinant mouse anti-CD44 antibody (#3570, Cell Signaling Technology), and AF594-labeled primary anti-EpCAM (#7319, Cell Signaling Technology) at 4° C. overnight. […] Confocal fluorescence images were obtained on Leica Stellaris 5 (inverted) confocal microscope using a 63X oil-immersion objective. Fluorescence intensities were quantified using Leica LAS AF Lite software.

[5] = molecular target: T2, GPC3; test: Co-localization of labeled multimer and anti-GPC3 antibody on resected human HCC PDX tumor specimen; assay type: binding; conditions: merged image
Text: (§4) After completion of in vivo imaging, specific multimer binding to the PDX HCC tumor was validated ex vivo using confocal microscopy. These studies confirmed the in vivo imaging results and expression of the expected targets ex vivo. Increased fluorescence intensity is seen at the cell surface (arrow) for the IRDye800-labeled multimer binding to HCC tumor, FIG. 8A. Adjacent sections were stained with antibodies specific for GPC3, CD44, and EpCAM, FIG. 8B-D. Co-localization of multimer and antibody binding is shown on the merged image, FIG. 8E. A correlation of ρ=0.69, 0.65, and 0.70 was measured to characterize binding co-localization by the multimer with the GPC3, CD44, and EpCAM antibodies, respectively.
(§5) Orthotopic HCC PDX tumors were resected and sectioned for immunofluorescence.

[6] = tested on: CD44; test: Co-localization of labeled multimer and anti-CD44 antibody binding to HCC patient-derived organoids (PDOs); parameters: species or system human; conditions: merged images
Protocol: as §2, §3

[7] = molecular target: T1, EpCAM; test: Co-localization of labeled multimer and anti-EpCAM antibody on resected human HCC PDX tumor specimen; assay type: binding; conditions: merged image
Text: as §4, §5

[8] = molecular target: T3, CD44 (Homo sapiens, UniProt P16070); test: Co-localization of labeled multimer and anti-CD44 antibody on resected human HCC PDX tumor specimen; assay type: binding; conditions: merged image
T3 construct: from tissue; host or cells: human HCC patient-derived xenograft tumor grown orthotopically in NSG mouse liver
T3 sequence (P16070 21-742): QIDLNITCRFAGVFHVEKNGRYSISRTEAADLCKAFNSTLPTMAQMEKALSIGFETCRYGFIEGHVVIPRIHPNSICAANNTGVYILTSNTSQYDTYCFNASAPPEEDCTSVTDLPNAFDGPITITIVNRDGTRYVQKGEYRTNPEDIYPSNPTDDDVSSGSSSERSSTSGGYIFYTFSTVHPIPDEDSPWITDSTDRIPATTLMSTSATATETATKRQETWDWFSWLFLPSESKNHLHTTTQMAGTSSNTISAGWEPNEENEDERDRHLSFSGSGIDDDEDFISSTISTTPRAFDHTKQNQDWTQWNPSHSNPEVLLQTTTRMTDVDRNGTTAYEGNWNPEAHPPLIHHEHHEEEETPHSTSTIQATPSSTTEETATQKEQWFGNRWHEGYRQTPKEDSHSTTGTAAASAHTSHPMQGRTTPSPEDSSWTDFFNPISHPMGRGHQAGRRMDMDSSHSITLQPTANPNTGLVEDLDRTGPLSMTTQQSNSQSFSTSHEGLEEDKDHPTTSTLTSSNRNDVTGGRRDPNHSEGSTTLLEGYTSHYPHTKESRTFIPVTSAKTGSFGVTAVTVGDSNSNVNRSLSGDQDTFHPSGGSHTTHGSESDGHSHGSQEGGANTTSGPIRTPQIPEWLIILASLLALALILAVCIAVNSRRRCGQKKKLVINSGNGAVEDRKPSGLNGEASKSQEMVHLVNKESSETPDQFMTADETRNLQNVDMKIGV
Text: as §4, §5

[9] = molecular target: T3, CD44; test: Co-localization of multimer and anti-CD44-AF488 on human liver tissue microarray; assay type: binding
T3 sequence (P16070 21-222 limits assumed): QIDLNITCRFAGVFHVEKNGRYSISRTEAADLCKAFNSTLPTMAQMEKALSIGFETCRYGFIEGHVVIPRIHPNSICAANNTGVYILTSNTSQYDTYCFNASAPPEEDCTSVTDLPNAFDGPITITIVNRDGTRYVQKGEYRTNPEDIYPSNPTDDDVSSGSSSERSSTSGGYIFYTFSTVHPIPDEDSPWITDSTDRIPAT
Protocol: as §1

[10] = tested on: human liver specimens; test: Multimer staining of human liver specimens ex vivo (tissue microarray), fluorescence intensity and ROC
Protocol: as §1

[11] = molecular target: T2, GPC3; test: Co-localization of labeled multimer and anti-GPC3 antibody binding to HCC patient-derived organoids (PDOs); conditions: merged images
Protocol: as §2, §3

[12] = tested on: orthotopic HCC PDX tumors; test: In vivo competition for binding (blocking before Gd-DOTA-labeled peptide multimer), MR imaging; parameters: species or system mouse; conditions: unlabeled blocker given prior to labeled multimer; 0.5 hour post-injection
Protocol: In vivo competition for binding to GPC3, CD44, and EpCAM was evaluated by administering unlabeled peptide monomers prior to Gd-DOTA labeled peptide multimer. Single unlabeled peptide monomers (ALL*, WKG*, and HPD*) at a concentration of 1.5 mM in 100 μL of PBS, or a mixture of all three peptide monomers (multi-block) at a concentration of 1 mM in 100 μL of PBS each were administered 30 minutes prior to the Gd-DOTA-labeled peptide multimer, FIG. 14A. T1-weighted MR images were collected at the peak uptake time of 0.5 hour after the peptide multimer injection. The T/B ratio of MR intensity was calculated using regions of interest, and the adjacent non-tumor region with equal area of the tumor region was defined as the background.

Pearson's correlation coefficient, multimer and EpCAM antibody ([1]; HCC): 0.81 | Pearson's correlation coefficient, multimer and EpCAM antibody ([1]; adenoma): 0.83 | Pearson's correlation coefficient, multimer and EpCAM antibody ([1]; cirrhosis): 0.66 | Pearson's correlation coefficient, multimer and EpCAM antibody ([1]; normal liver): 0.83 | Pearson's correlation coefficient, multimer and GPC3 antibody ([2]; HCC): 0.76 | Pearson's correlation coefficient, multimer and GPC3 antibody ([2]; adenoma): 0.82 | Pearson's correlation coefficient, multimer and GPC3 antibody ([2]; cirrhosis): 0.69 | Pearson's correlation coefficient, multimer and GPC3 antibody ([2]; normal liver): 0.74 | correlation of co-localization, multimer and EpCAM antibody [4]: 0.75 | Pearson's correlation coefficient, multimer with GPC3 antibody [5]: 0.69 | correlation of co-localization, multimer and CD44 antibody [6]: 0.80 | Pearson's correlation coefficient, multimer with EpCAM antibody [7]: 0.70 | Pearson's correlation coefficient, multimer with CD44 antibody [8]: 0.65 | Pearson's correlation coefficient, multimer and CD44 antibody ([9]; HCC): 0.70 | Pearson's correlation coefficient, multimer and CD44 antibody ([9]; adenoma): 0.74 | Pearson's correlation coefficient, multimer and CD44 antibody ([9]; cirrhosis): 0.60 | Pearson's correlation coefficient, multimer and CD44 antibody ([9]; normal liver): 0.69 | correlation of co-localization, multimer and GPC3 antibody [11]: 0.74
Substance: Cy5.5-labeled peptide multimer: peptide multimer of GPC3-, CD44- and EpCAM-specific peptides labeled with Cy5.5 (peptide 1 ALLANHEELFQT; peptide 2 WKGWSYLWTQQA; peptide 3 HPDMFTRTHSHN; not fully specified; also: peptide multimer, linkage not given here, Cy5.5 label, site not given here)
binding to cell surface of CCA-156 cells (fluorescence) [3]: Strong fluorescence signal; also recorded: strong binding | quantified fluorescence intensity, mean±SD ([10]; HCC): 8.4±1.0 | quantified fluorescence intensity, mean±SD ([10]; adenoma): 5.8±0.4 | quantified fluorescence intensity, mean±SD ([10]; cirrhosis): 6.4+0.7 | fluorescence intensity for HCC versus cirrhosis, adenoma, and normal ([10]; n=120 specimens): significantly greater | quantified fluorescence intensity, mean±SD ([10]; normal): 6.4±0.4

Substance: ALL*-Cy5.5: Cy5.5-labeled GPC3-specific peptide monomer ALLANHEELFQT (SEQ ID NO: 1) (also: Cy5.5 label, site not given here)
binding to cell surface of CCA-156 cells (fluorescence) [3]: minimal signal

correlation of co-localization, multimer and EpCAM antibody [4]: 0.75 | Pearson's correlation coefficient, multimer with GPC3 antibody [5]: 0.69 | correlation of co-localization, multimer and CD44 antibody [6]: 0.80 | Pearson's correlation coefficient, multimer with EpCAM antibody [7]: 0.70 | Pearson's correlation coefficient, multimer with CD44 antibody [8]: 0.65 | correlation of co-localization, multimer and GPC3 antibody [11]: 0.74
Substance: IRDye800-labeled multimer: GPC3-, CD44- and EpCAM-specific peptide monomers arranged via tri-lysine linker and PEG3 linkers, labeled with IRDye800 (peptide 1 ALLANHEELFQT; peptide 2 WKGWSYLWTQQA; peptide 3 HPDMFTRTHSHN; not fully specified; also: monomers arranged via tri-lysine linker and PEG3 linkers, IRDye800 label, site not given here)

Substance: WKG*-Cy5.5: Cy5.5-labeled CD44-specific peptide monomer WKGWSYLWTQQA (SEQ ID NO: 6) (also: Cy5.5 label, site not given here)
binding to cell surface of CCA-156 cells (fluorescence) [3]: minimal signal

Substance: HPD*-Cy5.5: Cy5.5-labeled EpCAM-specific peptide monomer HPDMFTRTHSHN (SEQ ID NO: 7) (also: Cy5.5 label, site not given here)
binding to cell surface of CCA-156 cells (fluorescence) [3]: minimal signal

Substance: ALLANHEELFQT (GPC3-specific peptide) [ALL*]
T/B ratio of Gd-DOTA-labeled peptide multimer after blocking [12]: reduced

Substance: HPDMFTRTHSHN (EpCAM-specific peptide) [HPD*]
T/B ratio of Gd-DOTA-labeled peptide multimer after blocking [12]: reduced

Substance: WKGWSYLWTQQA (CD44-specific peptide) [WKG*]
T/B ratio of Gd-DOTA-labeled peptide multimer after blocking [12]: reduced

— US20260248969A1, “PEPTIDE MULTIMER PRODUCTS AND METHODS” (REGENTS OF THE UNIVERSITY OF MICHIGAN, priority 2023, published 2026)
